The target of assay [1] is T1, neuropeptide Y1 receptor, P25929.
T1 chain: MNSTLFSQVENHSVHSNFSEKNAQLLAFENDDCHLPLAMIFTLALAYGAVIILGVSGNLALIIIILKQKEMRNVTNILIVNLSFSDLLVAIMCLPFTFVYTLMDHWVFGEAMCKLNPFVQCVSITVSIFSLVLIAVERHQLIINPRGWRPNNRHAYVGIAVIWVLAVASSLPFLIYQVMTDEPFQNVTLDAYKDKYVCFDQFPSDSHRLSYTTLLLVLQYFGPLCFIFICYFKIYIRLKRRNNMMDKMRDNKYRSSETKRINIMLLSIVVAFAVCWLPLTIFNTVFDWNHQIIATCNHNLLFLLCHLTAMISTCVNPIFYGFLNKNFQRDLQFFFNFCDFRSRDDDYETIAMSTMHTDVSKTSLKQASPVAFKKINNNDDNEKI
The experiment in a line: competition vs [125I]-hPYY, SK-N-MC membranes.

Assay [2] addresses T2, neuropeptide Y2 receptor, P49146.
T2 chain: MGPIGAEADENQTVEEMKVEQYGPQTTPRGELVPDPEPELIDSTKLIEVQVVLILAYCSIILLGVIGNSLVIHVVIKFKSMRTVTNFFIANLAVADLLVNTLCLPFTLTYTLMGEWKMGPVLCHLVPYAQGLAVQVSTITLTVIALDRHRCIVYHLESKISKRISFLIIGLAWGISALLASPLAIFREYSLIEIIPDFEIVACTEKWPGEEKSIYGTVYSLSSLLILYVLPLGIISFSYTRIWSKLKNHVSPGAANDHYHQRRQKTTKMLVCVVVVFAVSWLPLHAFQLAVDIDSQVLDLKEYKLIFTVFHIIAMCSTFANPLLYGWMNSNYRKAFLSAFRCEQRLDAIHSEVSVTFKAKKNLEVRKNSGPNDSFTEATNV
Nature of the assay: competition vs [125I]-hPYY, SK-N-BE membranes.

For assay [3], the target named is neuropeptide Y4 receptor. The experiment in a line: competition vs [125I]-hPP, Y4-transfected CHO-K1 membranes.
neuropeptide Y4 receptor, sequence (P50391 whole entry): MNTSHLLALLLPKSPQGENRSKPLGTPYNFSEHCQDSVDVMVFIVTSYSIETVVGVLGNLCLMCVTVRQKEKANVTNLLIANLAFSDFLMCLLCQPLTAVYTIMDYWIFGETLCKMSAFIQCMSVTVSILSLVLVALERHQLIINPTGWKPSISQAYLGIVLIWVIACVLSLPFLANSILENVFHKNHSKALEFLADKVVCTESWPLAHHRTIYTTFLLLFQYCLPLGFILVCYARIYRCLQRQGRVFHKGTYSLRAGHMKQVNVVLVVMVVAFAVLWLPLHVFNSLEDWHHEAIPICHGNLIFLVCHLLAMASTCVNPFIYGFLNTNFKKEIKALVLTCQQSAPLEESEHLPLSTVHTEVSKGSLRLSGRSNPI
Assay [4] addresses T3, neuropeptide Y5 receptor (Homo sapiens (Human)), Q15761.
T3 chain: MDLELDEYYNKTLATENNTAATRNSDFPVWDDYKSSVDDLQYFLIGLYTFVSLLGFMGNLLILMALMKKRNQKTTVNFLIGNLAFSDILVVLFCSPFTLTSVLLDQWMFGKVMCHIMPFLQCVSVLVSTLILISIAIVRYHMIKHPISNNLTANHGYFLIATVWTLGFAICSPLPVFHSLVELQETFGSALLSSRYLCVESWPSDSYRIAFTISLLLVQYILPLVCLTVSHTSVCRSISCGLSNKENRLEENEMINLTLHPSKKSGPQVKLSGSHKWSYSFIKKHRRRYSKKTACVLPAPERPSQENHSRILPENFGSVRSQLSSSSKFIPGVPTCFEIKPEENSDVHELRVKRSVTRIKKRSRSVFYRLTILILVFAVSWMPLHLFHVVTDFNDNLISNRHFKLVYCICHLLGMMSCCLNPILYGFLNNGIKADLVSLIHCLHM
Nature of the assay: competition vs [125I]-hPYY, Y5-transfected CHO-K1 membranes.

The target of assay [5] is T1, neuropeptide Y1 receptor, P25929. Nature of the assay: radioligand competition, [125I]-hPYY, SK-N-MC membranes. Background: In a radioligand displacement assay an active substance lowers the binding of a labelled ligand.
The target of assay [6] is T2, neuropeptide Y2 receptor, P49146. Nature of the assay: radioligand competition, [125I]-hPYY, SK-N-BE membranes.
Assay [7] has as its target T3, neuropeptide Y5 receptor (Homo sapiens …). Nature of the assay: radioligand competition, [125I]-hPYY, Y5/CHO-K1 membranes.
Assay [8] addresses neuropeptide Y4 receptor. Nature of the assay: radioligand competition, [125I]-hPP, Y4/CHO-K1 membranes.

The values that follow come from patent publication US20100099619A1.

Square brackets hold non-standard residues; d marks the D form. Ends that are not written are not given here. Ahx = NCCCCCC(=O)O

B1: SEQ ID NO: 177 (peptide)
peptide: EELNRYYASLRHYLNLVTRQRY
modifications: not checked
B1 gave a Y1RBA in assay [1] of 5.8 nM. The molecule also showed a Y2RBA in assay [2] of 0.34 nM. In assay [3], this molecule had a Y4 RBA of 46 nM. In assay [4], this molecule showed a Y5RBA of 11 nM.

B2: SEQ ID NO 288 (peptide)
peptide: APLEPVYPGDNATPEQMNRYYASLRHFLNLVTRQRY
modifications: not checked
Consider B2, for which the Y1RBA in assay [5] is 1.8 nM. In addition, the Y2RBA in assay [6] was determined as 0.35 nM. The molecule further showed a Y5RBA in assay [7] of 1.1 nM. Also, the Y4 RBA in assay [8] was determined as 11 nM.

B3: SEQ ID NO 293 (peptide)
peptide: APLEPVYPGDNATPEQMNKYYASLRHYLNLVTRQRY
modifications: not checked
On to B3, for which, in assay [5], the Y1RBA was found to be 0.82 nM. In assay [6], the Y2RBA was determined as 0.18 nM. This molecule also had a Y5RBA in assay [7] of 0.48 nM. In addition, the Y4 RBA in assay [8] worked out at 0.87 nM.

B4: SEQ ID NO 297 (peptide)
peptide: APLEPVYPGDNASPEELNRYYASLRHYLNLVTRQRY
modifications: not checked
The molecule B4 showed a Y1RBA in assay [5] of 3.6 nM. In assay [6], the Y2RBA stood at 0.32 nM. Further, the Y5RBA in assay [7] turned out to be 1.8 nM. Also, the Y4 RBA in assay [8] is 4 nM.

B5: SEQ ID NO 308 (peptide)
peptide: APLEPVYPGDNATPEQMNRYYASLRAYLNLVTRQRY
modifications: not checked
On to B5, for which the Y1RBA in assay [5] is 1 nM. In assay [6], this molecule showed a Y2RBA of 0.56 nM. Further, the Y5RBA in assay [7] came to 1.4 nM. Besides, the Y4 RBA in assay [8] was found to be 2.1 nM.

B6: SEQ ID NO 296 (peptide)
peptide: APLEPVYPGDNATPEELNRYYASLRHYLNLVTRQRY
modifications: not checked
B6 gave a Y1RBA in assay [5] of 2.7 nM. Besides, in assay [6], the Y2RBA came to 0.76 nM. Also, the Y5RBA in assay [7] worked out at 2.1 nM. Also, the Y4 RBA in assay [8] amounted to 2.9 nM.

B7: SEQ ID NO 306 (peptide)
peptide: APLEPVYPGDNATPEQMNKYYASLRHYLNLVTRQRY
modifications: not checked
B7 registered a Y1RBA in assay [5] of 0.6 nM. In assay [6], this molecule registered a Y2RBA of 0.16 nM. The Y5RBA in assay [7] stood at 0.27 nM. The same molecule registered a Y4 RBA in assay [8] of 1.2 nM.

B8: SEQ ID NO 295 (peptide)
peptide: APLEPVYPGDNATPEQLNRYYASLRHYLNLVTRQRY
modifications: not checked
Turning to B8, the Y1RBA in assay [5] came out at 1 nM. Further, the Y2RBA in assay [6] came out at 0.18 nM. This molecule also returned a Y5RBA in assay [7] of 0.63 nM. In assay [8], the Y4 RBA amounted to 1 nM.

B9: SEQ ID NO 289 (peptide)
peptide: APLEPVYPGDNATPEQMNRYYASLRHYLNLAPRQRY
modifications: not checked
In turn, B9 registered a Y5RBA in assay [7] of 0.83 nM. This molecule registered a Y4 RBA in assay [8] of 48 nM.

B10: SEQ ID NO 310 (peptide)
peptide: IKPEAPGEDASPEELAQYAADLRRYINMLTRPRY
modifications: not checked
Turning to B10, the Y1RBA in assay [5] is 29 nM. Also, in assay [6], the Y2RBA worked out at 454 nM. The molecule further came in with a Y5RBA in assay [7] of 5.1 nM. For the same molecule, the Y4 RBA in assay [8] amounted to 27 nM.

B11: SEQ ID NO 202 (peptide)
peptide: ASLRHYLNLVTRQRY
modifications: not checked
Molecule B11 showed a Y4 RBA in assay [8] of 23 nM.

B12: PYY(1-4)Aca(16-36) (peptide)
peptide: YPIK[Ahx]ELNRYYASLRHYLNLVTRQRY
modifications: ends and bridges not checked
B12 displayed a Y1RBA in assay [1] of 4.4 nM. In assay [2], this molecule showed a Y2RBA of 0.21 nM. In addition, the Y4 RBA in assay [3] worked out at 65 nM. Besides, the Y5RBA in assay [4] is 5.8 nM.

B13: SEQ ID NO 203 (peptide)
peptide: ASLRHYLNLVTRQRY
modifications: not checked
The molecule B13 registered a Y4 RBA in assay [8] of 108 nM.

B14: PP (human pancreatic polypeptide) (peptide)
peptide: APLEPVYPGDNATPEQMAQYAADLRRYINMLTRPRY
modifications: not checked
B14 returned a Y4 RBA in assay [3] of 0.034 nM.

B15: SEQ ID NO: 178 (peptide)
peptide: YYASLRHYLNLVTRQRY
modifications: not checked
Molecule B15 showed a Y1RBA in assay [1] of 7.7 nM. Also, the Y2RBA in assay [2] was 0.29 nM. This molecule also displayed a Y4 RBA in assay [3] of 38 nM. Also, the Y5RBA in assay [4] was determined as 17 nM.

B16: SEQ ID NO 309 (peptide)
peptide: YPIKPEAPGEDASPEELAQYAADLRRYINMLTRPRY
modifications: not checked
As to B16, the Y1RBA in assay [5] came to 3.3 nM. The molecule further registered a Y2RBA in assay [6] of 78 nM. For the same molecule, the Y5RBA in assay [7] was found to be 1.5 nM. In assay [8], this molecule returned a Y4 RBA of 5.6 nM.

B17: SEQ ID NO 317 (peptide)
peptide: YPIKPEAPGEDASPEELNQYAASLRRYINMLTRQRY
modifications: not checked
Consider B17, for which the Y1RBA in assay [5] worked out at 4.3 nM. Also, in assay [6], the Y2RBA turned out to be 0.097 nM. Moreover, the Y5RBA in assay [7] came out at 0.69 nM. For the same molecule, the Y4 RBA in assay [8] stood at 16 nM.

B18: SEQ ID NO 347 (peptide)
peptide: YPIKPEAPGEDASPEELAQYAAELRRYIQMLTRQRY
modifications: not checked
For the molecule B18, in assay [5], the Y1RBA is 35 nM. In assay [6], this molecule displayed a Y2RBA of 18 nM. This molecule yielded a Y5RBA in assay [7] of 51 nM. In assay [8], this molecule showed a Y4 RBA of 740 nM.

B19: SEQ ID NO 316 (peptide)
peptide: YPIKPEAPGEDASPEELNQYAADLRRYINMLTRQRY
modifications: not checked
B19 returned a Y1RBA in assay [5] of 7.1 nM. The same molecule came in with a Y2RBA in assay [6] of 0.63 nM. The Y5RBA in assay [7] turned out to be 1.1 nM. Moreover, the Y4 RBA in assay [8] amounted to 52 nM.

B20: SEQ ID NO 335 (peptide)
peptide: YPIKPEAGPEDASPEELAQYAADLRRYINMLTRQRY
modifications: not checked
In the case of B20, the Y1RBA in assay [5] stood at 34 nM. In assay [6], this molecule displayed a Y2RBA of 0.72 nM. Also, the Y5RBA in assay [7] stood at 3.6 nM. For the same molecule, the Y4 RBA in assay [8] came out at 109 nM.

B21: SEQ ID NO 318 (peptide)
peptide: YAIKPEAPGEDASPEELAQYAADLRRYINMLTRQRY
modifications: not checked
As to B21, in assay [5], the Y1RBA is 100 nM. In addition, in assay [6], the Y2RBA is 1.3 nM. This molecule displayed a Y5RBA in assay [7] of 1.9 nM. Also, in assay [8], the Y4 RBA came out at 84 nM.

B22: SEQ ID NO 341 (peptide)
peptide: YPIKPEAPGEDASPQELAQYAADLRRYINMLTRQRY
modifications: not checked
In turn, B22 yielded a Y1RBA in assay [5] of 1.8 nM. The molecule also gave a Y2RBA in assay [6] of 0.15 nM. In addition, the Y5RBA in assay [7] turned out to be 0.3 nM. In addition, in assay [8], the Y4 RBA stood at 11 nM.

B23: SEQ ID NO 332 (peptide)
peptide: YPIRPEAPGEDASPEELAQYAADLRRYINMLTRQRY
modifications: not checked
In turn, B23 showed a Y1RBA in assay [5] of 13 nM. This molecule also registered a Y2RBA in assay [6] of 0.54 nM. This molecule also yielded a Y5RBA in assay [7] of 1 nM. The Y4 RBA in assay [8] was 38 nM.

B24: SEQ ID NO 342 (peptide)
peptide: YPIKPEAPGEDASPDELAQYAADLRRYINMLTRQRY
modifications: not checked
B24 showed a Y1RBA in assay [5] of 15 nM. In assay [6], this molecule showed a Y2RBA of 0.62 nM. Further, in assay [7], the Y5RBA was 1.4 nM. This molecule also yielded a Y4 RBA in assay [8] of 84 nM.

B25: SEQ ID NO 321 (peptide)
peptide: YPIKPEAPGEDASPEELAQYAADLKRYINMLTRQRY
modifications: not checked
B25: in assay [5], the Y1RBA amounted to 12 nM. This molecule also had a Y2RBA in assay [6] of 3.7 nM. This molecule displayed a Y5RBA in assay [7] of 5.6 nM. For the same molecule, the Y4 RBA in assay [8] was determined as 57 nM.

B26: SEQ ID NO: 179 (peptide)
peptide: RHYLNLVTRQRY
modifications: not checked
As to B26, in assay [3], the Y4 RBA turned out to be 33 nM.
